Measured values taken from patent publication US20090197801A1.

Molecular target: recombinant erythropoietin receptor (EPOR-Fc)
Assay: SPR; Epo 3 peptide ionically bound to the chip, soluble recombinant EPOR-Fc as analyte; three independent experiments

recombinant erythropoietin receptor (EPOR-Fc), sequence (P19235 25-250): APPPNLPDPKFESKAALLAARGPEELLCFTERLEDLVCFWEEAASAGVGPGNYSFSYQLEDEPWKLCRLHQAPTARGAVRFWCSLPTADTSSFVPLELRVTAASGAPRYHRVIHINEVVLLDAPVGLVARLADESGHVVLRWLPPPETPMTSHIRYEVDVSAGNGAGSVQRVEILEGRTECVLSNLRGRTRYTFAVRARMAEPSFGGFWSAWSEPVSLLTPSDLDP

- Kd: 4.48 nM
Binder: QLHVDKAVSGLRSLTTLLRA [Epo3 peptide (Epo-peptide 3)]
